Assay [1] deals with Bax (single cysteine 126C, Alexa647-labeled, recombinant), Q07812. Description: FRET. As to conditions: chain shown with the change, 20 nM Alexa568-labeled BimL mutant (FRET donor), Alexa647-labeled Bax acceptor.
Assay [2] has as its target Bcl-XL (single cysteine 152C, Alexa647-labeled, recombinant), Q07817-1. The experiment in a line: FRET. As to conditions: chain shown with the change, 20 nM Alexa568-labeled BimL mutant (FRET donor), Alexa647-labeled Bcl-XL acceptor.
The mark [3] stands for this setting: membranes present (liposomes), apparent Kd, parent: 29±1.
The mark [4] stands for this setting: membranes present (liposomes), apparent Kd, parent: 1±1.

Where a chain is given by its changes, count along the chain named. Names may count otherwise. Where only a bound is given, the exact number is not on record here.

Chain of Bax (single cysteine 126C, Alexa647-labeled, recombinant), Q07812 (Q07812 whole entry): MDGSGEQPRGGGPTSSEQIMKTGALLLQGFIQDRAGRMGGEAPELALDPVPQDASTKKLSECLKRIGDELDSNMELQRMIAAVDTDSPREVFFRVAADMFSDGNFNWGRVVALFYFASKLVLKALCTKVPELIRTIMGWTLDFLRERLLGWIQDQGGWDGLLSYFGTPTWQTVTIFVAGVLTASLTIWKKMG
Chain of Bcl-XL (single cysteine 152C, Alexa647-labeled, recombinant), Q07817-1 (Q07817 whole entry): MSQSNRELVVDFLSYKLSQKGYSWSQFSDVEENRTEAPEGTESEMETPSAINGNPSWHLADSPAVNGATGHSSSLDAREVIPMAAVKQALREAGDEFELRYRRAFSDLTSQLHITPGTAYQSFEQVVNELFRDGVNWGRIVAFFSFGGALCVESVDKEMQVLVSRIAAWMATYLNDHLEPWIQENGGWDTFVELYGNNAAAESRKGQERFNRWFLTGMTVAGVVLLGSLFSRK

B1: BimL (single cysteine Q41C, Alexa568-labeled, recombinant) I90E; L94E; I97E; F101E (protein)
chain: MHHHHHHGGSGGTGGSENLYFQGTMAKQPSDVSSECDREGGQLQPAERPPQLRPGAPTSLQTEPCDRSPAPMSCDKSTQTPSPPCQAFNHYLSAMASIRQSQEEPEDLRPEIREAQEERREGDEENETYTRRVFANDYREAEDHPQMVILQLLRFIFRLVWRRH
Turning to B1, the Kd in assay [1] (in solution, parent: 59±7) was more than 1000 nM; in assay [1] (setting [3]), more than 1000 nM; in assay [2] (in solution, parent: 8±0.4) it was more than 1000 nM; in assay [2] (setting [4]) it was more than 1000 nM.

B2: BimL (single cysteine Q41C, Alexa568-labeled, recombinant) R130A; R134A (protein)
chain: B1 chain with E114I, E118L, E121I, E125F, R154A, R158A
Take B2: the Kd in assay [1] (setting [3]) came out at 64 nM; in assay [2] (setting [4]) it was 20 nM.

B3: BimL (single cysteine Q41C, Alexa568-labeled, recombinant) I132E (protein)
chain: B1 chain with E114I, E118L, E121I, E125F, I156E
Take B3: the Kd in assay [2] (in solution, parent: 8±0.4) was 10 nM; in assay [2] (setting [4]) it was 2 nM.

B4: BimL (single cysteine Q41C, Alexa568-labeled, recombinant) L129E (protein)
chain: B1 chain with E114I, E118L, E121I, E125F, L153E
Consider B4, for which, in assay [2] (setting [4]), the Kd came out at 5 nM.

B5: BimL (single cysteine Q41C, Alexa568-labeled, recombinant) V124E (protein)
chain: B1 chain with E114I, E118L, E121I, E125F, V148E
Regarding B5, the Kd stood at 95 nM in assay [1] (setting [3]) and 2 nM in assay [2] (setting [4]).

(Values after article PMC6980855.)
